Literature values, collected in publication PMC12332068.

How the values were obtained:
[1] = biological target: Bzz1 SH3#1 (Saccharomyces cerevisiae) (UniProt P38822); test: BLI
[2] = biological target: Bzz1 SH3#1-2 (Saccharomyces cerevisiae) (UniProt P38822); test: BLI

Kd [1]: 7.5 µM
Kd [2]: 0.087 µM
Substance: Las17 300-422 (from UniProt Q12446)
